For data set [1], the system named is cells that line the nasal cavity. As to conditions: 0.125% TDM, ref Arnold et al., 2004; cited from earlier work.
The conditions of data set [2]: rat, in vivo.
The conditions of data set [3]: rat, in vivo. This is another data set of the same source.
Data set [4] deals with anesthetized, hyperglycemic rats. Description: Blood glucose levels. The format is in vivo, rat. To be noted: nose drops, 2 units of insulin, mean +/- SEM, n=3-6; for Blood Glucose AUC 0-180: trapezoidal rule.
Data set [5] in a line: Plasma insulin levels after nasal administration of insulin nose drops. To be noted: rats, 2 units of insulin, with 0.125% TDM, human insulin RIA, mean +/- SEM, n = 3-6.
Where [6] appears, read: with 0.125% TDM, basal glucose 303 to 393 mg/dl.

Like-named read-outs stand apart in the source and are kept apart here. Marks after values point to notes of the source that are not given here.

As for `CCCCCCCCCCCCCCO[C@@H]1O[C@H](CO)[C@@H](O[C@H]2O[C@H](CO)[C@@H](O)[C@H](O)[C@H]2O)[C@H](O)[C@H]1O` [TDM, tetradecyl-β-D-maltoside], the “Toxicity to the cells that line the nasal cavity” value in data set [1] is reported as “minimal toxicity”.

On to Aspart Insulin, for which, in data set [2], the “Plasma Insulin AUC 0-180” value is recorded as 55238 +/- 4600 ^a, ^b uU/ml × minutes and the “Plasma Insulin T-max” value turned out to be 15 min. For the same molecule, in data set [3], the “Absorption of insulin from the nasal cavity (in words)” value is “absorbed from the nasal cavity”. Moreover, the “Blood Glucose at 60 minutes after Insulin administration” value (“Blood Glucose at 60 minutes” for short) in data set [4] (setting [6]) is listed as 205 +/- 13 ^a, ^b mg/dL.

With Glargine Insulin, in data set [2], the “Plasma Insulin AUC 0-180” value is given as 67170 +/- 4800 ^a, ^b uU/ml × minutes; the “Plasma Insulin C-max” value is on record as 500 +/- 52 ^a, ^b uU/ml; the “Plasma Insulin T-max” value came out at 60 min. The “Absorption of insulin from the nasal cavity (in words)” value in data set [3] is “absorbed from the nasal cavity”. Also, in data set [4] (setting [6]), the “Blood Glucose at 60 minutes” value is 183 +/- 26 ^a mg/dL and the “Blood Glucose AUC 0-180” value was 36345 +/- 3600 ^a mg/dL × minutes.

Turning to Lispro Insulin, in data set [2], the “Plasma Insulin AUC 0-180” value is recorded as 41820 +/- 3300 ^a uU/ml × minutes and the “Plasma Insulin T-max” value stood at 15 min. Also, in data set [4] (setting [6]), the “Blood Glucose at 60 minutes” value is recorded as 160 +/- 27 ^a mg/dL and the “Blood Glucose AUC 0-180” value is 39863 +/- 3200 ^a mg/dL × minutes.

Regarding “Regular Insulin: regular insulin (Novolin R®), Novo Nordisk”, in data set [5], the “Plasma Insulin C-max” value was 874 +/- 56 ^a uU/ml. In data set [5] (up to 180 minutes, trapezoidal rule), the “Plasma Insulin AUC 0-180” value is reported as 33398 +/- 2500 ^a uU/ml × minutes. The “Blood Glucose at 60 minutes” value is recorded as 135 +/- 22 ^a mg/dL in data set [4] (setting [6]) and 600 +/- 10 ^** mg/dL in data set [4] (without TDM (0%), upper limit of glucometer = 600 mg/dL). The entries for the “Blood Glucose AUC 0-180” value in data set [4] (setting [6]) and in data set [4] (without TDM (0%)) were 32745 +/- 2400 ^a mg/dL × minutes and 93728 ± 2600 mg·min/dL, respectively.

The values are drawn from PMC2834479 (International journal of pharmaceutics, 2010).
